B1: IgE mAb1_2 (antibody, V domains shown)
VH: QIQLVQSGPELKKPGETVKISCKASGYTFTTYGMSWVKQAPGKGLKWMGWINTYSGVPTYADDFKGRFVFSLETSASTAYLQINNLKNEDTATYFCARAYYYGSSYLIWYFDVWGTGTTVTVSS
VL: NIVLTQSPASLAVSLGQRATISCRASESVDSYGNSFMHWYQQKPGQPPKLLIYLASNLESGVPARFSGSGSRTDFTLTIDPVEADDAATYYCQQNNEDPYTFGGGTKLEIK
B2: IgE mAb 21_2 (antibody, V domains shown)
VH: QVQLQQSGPELVKPGASVKISCKAPGNAFSYSWMNWVKQRPGKGLEWVGRIYPGDGDTNYNGKFMGKATLTADKSSNTAYIQLSSLTSEDSAVYFCARSGGGTLYWYFDVWGTGTTVTVSS
VL: DIVMTQSPSSLALSVGQKVTMNCRSSQSLLNSFNQKNYLAWFQQKPGQSPRLLIYFASTRESGVPDRFIGSGSGTDFTLTISSVQAEDLADYFCQQHYNTPLTFGAGTTLELK
B3: IgE mAb 8_2 (antibody, V domains shown)
VH: QVLLKESGPGLVAPSQSLSITCTVSGFSLTSYGVSWVRQPPGKGLEWLGVIWGDGNTDYHSALISRLSIRKDNSKSQVFLKLNSLQTDDTATYYCAIGSPFAYWGQGTLVTVSA
VL: DVLMTQTPLSLPVSLGDQVSISCRSSQNIVHSTGNTYLEWYLQKPGQSPKLLIFKVSNRLSGVPDRFSGSGSGTDFTLNISRVEAADLGIYSCFQGSHVPFTFGSGTKLEIK
B4: IgE monoclonal antibody mAb12_2 (antibody, V domains shown)
VH: QAYLQQSGAELVRPGASVKMSCKASGYTFISYNMHWVKQTRRQGLEWIGAIYPGNGDTSYNQKFKGKATLTVDKSSSTAYMQLSSLTSEDSAVYFCARWDYYGSSYGAYWGQGTLVTVSA
VL: DIQMTQSPASLSVSVGETVTITCRASENIYSNLAWYQQKQGKSPQLLVYAATNLADGVPSRFSGSGSGTQYSLKINSLQSEDFGSYYCQHFWGTPWTFGGGTKLEIK

Tests used:
Assay in all cases: ELISA
Der f1 = Der f1 (Dermatophagoides farinae, UniProt P16311, biotin (Biotin Conjugation Kit, Lightning-Link))
Der f1, sequence (P16311 99-321): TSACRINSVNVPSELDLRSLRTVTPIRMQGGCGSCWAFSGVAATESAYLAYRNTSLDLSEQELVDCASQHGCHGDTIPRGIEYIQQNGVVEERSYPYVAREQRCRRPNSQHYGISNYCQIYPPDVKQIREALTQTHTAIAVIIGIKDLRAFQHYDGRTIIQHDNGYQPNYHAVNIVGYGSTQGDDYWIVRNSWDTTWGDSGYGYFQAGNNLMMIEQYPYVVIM

Der p2 = Der p2 (Dermatophagoides pteronyssinus, UniProt P49278, biotin (Biotin Conjugation Kit, Lightning-Link))
Der p2, sequence (P49278 18-146): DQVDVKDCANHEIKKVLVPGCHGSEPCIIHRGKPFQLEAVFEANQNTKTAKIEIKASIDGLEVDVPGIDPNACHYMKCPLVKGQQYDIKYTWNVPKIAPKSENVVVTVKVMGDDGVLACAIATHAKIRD

Der p1 = Der p1 (Dermatophagoides pteronyssinus, UniProt P08176, biotin (Biotin Conjugation Kit, Lightning-Link))
Der p1, sequence (P08176 99-320): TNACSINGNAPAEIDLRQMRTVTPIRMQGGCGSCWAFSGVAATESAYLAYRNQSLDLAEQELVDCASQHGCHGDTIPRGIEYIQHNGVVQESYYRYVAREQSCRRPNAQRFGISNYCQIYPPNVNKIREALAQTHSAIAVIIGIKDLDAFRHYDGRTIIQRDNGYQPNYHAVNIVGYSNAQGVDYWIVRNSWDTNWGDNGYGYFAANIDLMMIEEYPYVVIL

Fel d1 = Fel d1 (Felis catus, UniProt P30438;P30440)
Fel d1, sequence (P30438 23-92, chain 1 of 2): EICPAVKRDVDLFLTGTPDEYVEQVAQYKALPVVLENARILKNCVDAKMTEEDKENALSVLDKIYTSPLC
Fel d1, sequence (P30440 18-109, chain 2 of 2): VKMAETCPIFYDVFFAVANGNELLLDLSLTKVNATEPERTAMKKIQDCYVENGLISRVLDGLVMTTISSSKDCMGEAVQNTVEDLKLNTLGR

Ole e1 = Ole e1 (Olea europaea, UniProt P19963, biotin (Biotin Conjugation Kit, Lightning-Link))

Row | Binder | binding result (Der f1) | binding result (Der p2) | binding result (Der p1) | binding result (Fel d1) | binding result (Ole e1)
1 | B1 | binds | – | – | – | –
2 | B2 | – | binds | – | – | –
3 | B3 | – | binds | – | – | –
4 | B4 | binds | binds | binds | no binding | binds
